Molecular target: human albumin (Homo sapiens, UniProt P02768)
Experiment: Release of CPT in reconstituted human albumin (PBS solution)
Format: in vitro ADME
Details: in the presence of albumin
Description: Samples were stored at −80° C. until the analysis.

Chain of human albumin (P02768 25-609): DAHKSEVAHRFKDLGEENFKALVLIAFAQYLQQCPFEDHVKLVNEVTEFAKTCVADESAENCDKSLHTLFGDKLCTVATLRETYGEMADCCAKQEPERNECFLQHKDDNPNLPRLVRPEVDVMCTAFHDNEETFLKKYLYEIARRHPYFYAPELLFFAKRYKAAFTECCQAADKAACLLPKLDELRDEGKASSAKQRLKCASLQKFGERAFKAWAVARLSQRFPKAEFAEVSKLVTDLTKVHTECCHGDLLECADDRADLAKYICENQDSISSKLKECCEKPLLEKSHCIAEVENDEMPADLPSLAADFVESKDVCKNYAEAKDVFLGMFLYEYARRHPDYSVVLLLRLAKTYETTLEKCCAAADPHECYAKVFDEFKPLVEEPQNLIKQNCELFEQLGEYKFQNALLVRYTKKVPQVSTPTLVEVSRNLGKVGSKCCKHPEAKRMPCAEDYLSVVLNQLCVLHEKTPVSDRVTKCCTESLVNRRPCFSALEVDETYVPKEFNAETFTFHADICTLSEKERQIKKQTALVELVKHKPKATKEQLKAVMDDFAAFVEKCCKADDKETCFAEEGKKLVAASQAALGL

With Poly(CDDCys-PA-PEG)-Gly-CPT [HG6] the “CPT release rate compared with PBS” value was “on the same order of magnitude as in PBS”.

“Poly(CDDCys-PA-PEG)-GlyGlyGly-CPT [HGGG6]” was tested, and the “CPT release rate compared with PBS” value was “on the same order of magnitude as in PBS”.

Reference: patent US20150005230A1, “CYCLODEXTRIN-BASED POLYMERS FOR THERAPEUTIC DELIVERY” (priority 2012, published 2015)
